# Patent US20230092787A1 (UNIVERSITY OF VIRGINIA PATENT FOUNDATION, published 2023)
# B1: phycoerythrin-conjugated anti-integrin αvβ3 monoclonal antibody (clone LM609) (antibody, V domains shown)
# VH: EVQLEESGGGLVKPGGSLKLSCAASGFAFSSYDMSWVRQIPEKRLEWVAKVSSGGGSTYYLDTVQGRFTISRDNAKNTLYLQMSSLNSEDTAMYYCARHNYGSFAYWGQGTLVTVSA
# VL: ELVMTQTPATLSVTPGDSVSLSCRASQSISNHLHWYQQKSHESPRLLIKYASQSISGIPSRFSGSGSGTDFTLSINSVETEDFGMYFCQQSNSWPHTFGGGTKLEIK
# notes: Bought reagent (Millipore Sigma), conjugated to phycoerythrin; also called PE-conjugated anti-integrin αvβ3 antibody (LM609; Millipore Sigma)
# Experiments:
# [1] = biological target: T1, integrin alphav beta3 (αvβ3), human, on tumor cell lines (human, UniProt P06756 31-1048; P05106 27-788); test: flow cytometry, PE-LM609 on SU-DIPG-36 cells
# T1 construct: whole, on cells; Endogenous heterodimer on human DIPG and GBM tumor cell lines; also called integrin αvβ3; ITGAV/ITGB3
# T1 sequence (P06756 31-1048, chain 1 of 2): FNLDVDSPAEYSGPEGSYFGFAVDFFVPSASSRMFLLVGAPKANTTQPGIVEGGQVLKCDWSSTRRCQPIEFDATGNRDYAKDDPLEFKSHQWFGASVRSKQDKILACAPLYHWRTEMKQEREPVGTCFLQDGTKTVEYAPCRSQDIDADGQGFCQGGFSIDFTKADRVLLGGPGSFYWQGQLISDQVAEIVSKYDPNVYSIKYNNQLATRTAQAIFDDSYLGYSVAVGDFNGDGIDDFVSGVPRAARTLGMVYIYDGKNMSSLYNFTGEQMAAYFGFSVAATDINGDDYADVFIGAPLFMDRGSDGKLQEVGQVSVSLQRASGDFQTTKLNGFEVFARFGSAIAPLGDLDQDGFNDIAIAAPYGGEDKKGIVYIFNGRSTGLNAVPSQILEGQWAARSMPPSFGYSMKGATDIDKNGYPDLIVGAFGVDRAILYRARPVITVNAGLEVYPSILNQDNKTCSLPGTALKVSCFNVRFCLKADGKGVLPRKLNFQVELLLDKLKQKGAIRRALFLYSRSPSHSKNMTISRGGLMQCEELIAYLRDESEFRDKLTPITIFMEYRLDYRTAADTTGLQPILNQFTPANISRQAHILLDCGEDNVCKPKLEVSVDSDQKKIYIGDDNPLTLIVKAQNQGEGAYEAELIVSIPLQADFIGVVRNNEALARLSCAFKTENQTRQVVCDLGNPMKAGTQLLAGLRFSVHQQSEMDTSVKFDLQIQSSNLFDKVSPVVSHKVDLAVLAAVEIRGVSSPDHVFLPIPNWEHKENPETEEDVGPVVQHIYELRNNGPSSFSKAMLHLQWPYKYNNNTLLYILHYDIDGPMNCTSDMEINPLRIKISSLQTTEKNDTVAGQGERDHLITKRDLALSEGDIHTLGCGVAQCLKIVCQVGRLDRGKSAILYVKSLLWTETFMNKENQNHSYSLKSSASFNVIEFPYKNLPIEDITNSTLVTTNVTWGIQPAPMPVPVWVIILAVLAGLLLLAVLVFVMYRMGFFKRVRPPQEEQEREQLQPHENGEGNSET
# T1 sequence (P05106 27-788, chain 2 of 2): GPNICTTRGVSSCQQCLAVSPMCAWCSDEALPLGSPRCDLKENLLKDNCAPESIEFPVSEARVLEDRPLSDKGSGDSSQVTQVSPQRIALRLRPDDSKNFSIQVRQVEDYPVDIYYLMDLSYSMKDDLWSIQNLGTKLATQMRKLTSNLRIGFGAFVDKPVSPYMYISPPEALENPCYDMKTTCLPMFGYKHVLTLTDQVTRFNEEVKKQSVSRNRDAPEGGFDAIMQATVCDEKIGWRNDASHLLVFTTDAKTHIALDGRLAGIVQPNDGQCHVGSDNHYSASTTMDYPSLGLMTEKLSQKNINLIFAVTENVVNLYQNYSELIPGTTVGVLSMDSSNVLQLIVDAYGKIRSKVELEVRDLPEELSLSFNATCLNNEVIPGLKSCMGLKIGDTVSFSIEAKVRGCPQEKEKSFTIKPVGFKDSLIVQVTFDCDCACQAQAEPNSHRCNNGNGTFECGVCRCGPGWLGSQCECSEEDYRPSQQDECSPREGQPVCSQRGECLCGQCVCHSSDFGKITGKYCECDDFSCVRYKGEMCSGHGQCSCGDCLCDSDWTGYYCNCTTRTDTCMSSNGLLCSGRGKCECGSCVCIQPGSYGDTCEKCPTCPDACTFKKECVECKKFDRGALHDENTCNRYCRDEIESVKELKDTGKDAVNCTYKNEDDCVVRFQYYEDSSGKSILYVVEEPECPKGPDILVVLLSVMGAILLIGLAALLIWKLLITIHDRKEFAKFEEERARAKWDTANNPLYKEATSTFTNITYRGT
# Description: (§1) Human T cell analysis of ex vivo expanded CAR T cells, and T cells isolated from mouse blood, brain, and spleen was performed using antibodies against CD3 (HIT3a), CD4 (OKT4), CD8 (SK1), CD45RO (UCH1.1), CD45RA (H100), CCR7 (G043H7), CD127 (A019D5), PD-1 (EH12.2H7), LAG-3 (11C3C65), TIM-3 (F38-2E2), CD45 (2D1), and TCF-1 (7F11A10) (from BioLegend, San Diego, Calif., United States of America). Expression of integrin αᵥβ₃ CAR was detected using biotinylated protein L (Thermo Fisher Scientific, Waltham, Mass., United States of America) followed by streptavidin-conjugated PE (BioLegend, San Diego, Calif., United States of America). […] Sample data was acquired on a NovoCyte 3005 Flow Cytometer (ACEA Biosciences Inc., San Diego, Calif., United States of America) and analyzed using data analysis software sold under the tradename FLOWJO™ v10 (FlowJo LLC, Ashland, Oreg., United States of America).
# (§2) Tumor cell line expression of integrin αᵥβ₃ was measured by flow cytometry. More particularly, cell surface expression of integrin αᵥβ₃ was evaluated by flow cytometry staining with phycoerythrin-conjugated anti-integrin αᵥβ₃ monoclonal antibody (clone LM609) on diffuse intrinsic pontine glioma (DIPG), neuroblastoma, glioblastoma (GBM), triple-negative breast, bladder, rhabdomyosarcoma (RMS), lung, cervical squamous cell carcinoma, and melanoma tumor cell lines. […]
# [2] = biological target: T1, integrin alphav beta3 (αvβ3), human, on …; test: flow cytometry, PE-LM609 on GBM U251 cells
# Description: as §1, §2
# [3] = biological target: T1, integrin alphav beta3 (αvβ3), human, on …; test: flow cytometry, PE-LM609 on SU-DIPG-21 cells
# Description: as §1, §2
# [4] = biological target: T1, integrin alphav beta3 (αvβ3), human, on …; test: flow cytometry, PE-LM609 on SU-DIPG-17 cells
# Description: as §1, §2
# [5] = biological target: T1, integrin alphav beta3 (αvβ3), human, on …; test: flow cytometry, PE-LM609 on SU-DIPG-XIII cells
# Description: as §1, §2
# [6] = biological target: T1, integrin alphav beta3 (αvβ3), human, on …; test: flow cytometry, PE-LM609 on SU-DIPG-27 cells
# Description: as §1, §2
# [7] = biological target: T1, integrin alphav beta3 (αvβ3), human, on …; test: flow cytometry, PE-LM609 on SU-DIPG-IV cells
# Description: as §1, §2
# [8] = biological target: T1, integrin alphav beta3 (αvβ3), human, on …; test: flow cytometry, PE-LM609 on GBM U87 cells
# Description: as §1, §2
binder,measurement,setting,value
B1,MFI ratio (MFI/MFI isotype control),[1],16
same,MFI ratio (MFI/MFI isotype control),[2],2
same,MFI ratio (MFI/MFI isotype control),[3],6
same,MFI ratio (MFI/MFI isotype control),[4],5
same,MFI ratio (MFI/MFI isotype control),[5],5
same,MFI ratio (MFI/MFI isotype control),[6],4
same,MFI ratio (MFI/MFI isotype control),[7],8
same,MFI ratio (MFI/MFI isotype control),[8],17
